The supplement of paper PMC11780869

System: Bacillus subtilis
Test: cleaved RNA product abundance (RNA/gDNA barcode ratio) relative to median wild-type variant (ratio to wild type); higher = more accumulation of the downstream cleavage product
Outline: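 Reporter mRNAs (truncated aprE or tetM) carrying barcoded, mutagenized RNase Y cleavage-site windows were made from oligos with a 9% error rate and integrated into the B. subtilis chromosome. Cultures grew in LB at 37°C from OD600 0.0003 to 0.3. Cleaved RNA was gel-selected, reverse transcribed and barcode-sequenced alongside genomic DNA barcodes, with UMI collapsing. Cleaved product abundance is the RNA:gDNA barcode ratio per variant, scaled to the median wild-type variant.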

[1] = experiment (reporter, strain, medium): exp 4a: truncated aprE reporter, strain BJT201 with 2% xylose (RNase J1 expressed), cleavage site: cggR-gapA (positions -7 to +36 mutated)
[2] = experiment (reporter, strain, medium): exp 2b: truncated aprE reporter, strain BJT200, cleavage site: cggR-gapA (positions -7 to +36 mutated)
[3] = experiment (reporter, strain, medium): exp 8a: truncated aprE reporter, strain BJT201 with 2% xylose (RNase J1 expressed), cleavage site: glnRA (positions -5 to +31 mutated)

Row | Sequence | cleaved RNA product abundance [1] | cleaved RNA product abundance [3] | also measured
1 | ACAGACGAAGGAGCCGCAAAGAAGTTATTAAGGGATGAATAATCTATCAATATAAATATCTCTCACTTATTTAAA | 0.135 | – | –
2 | ACAGACGAAGGAGCCGCAAAAAAGTGATTAAGGGATGAATAATCCCTCAATATAAATATCTCTCACTTATTTAAA | 0.583 | – | cleaved RNA product abundance [2]: 0.276
3 | CGACATGTCCCGCTTCTTTCATTAATCCGTTAGCAACAGGTTTGCTATATACATTTACCTTTTAAGAGGAGGAAT | – | 0.389 | –
4 | ACAGACGAAGGAGCCGCAAAGAAGTTATTTAGGGATGAATAATCCCTGAATATAAATATCTCTCACTTATTTAAA | 0.559 | – | –
5 | ACAGACGAAGGAGCCGCAAAGAAGTTATTAAGGGATGAATAGTCCCTGAATATAAATATCTCTCACTTATTTAAA | 0.334 | – | –
6 | ACAGACGAAGGAGCCGCAAAAAAGTTATTAAGGGATGAATAAACCCTCTATATAAATATCTCTCACTTATTTAAA | 0.22 | – | –
7 | ACAGACGAAGGAGCCGCAAAGGAGTTATTAAGGGATGAATAATCCCTCAATATCAATATCTCTCACTTATTTAAA | 0.134 | – | –
8 | CGACATGTCCCGCTTCTTTCATTAATCCGTTAGCAACTGTTTTTCTATATATATTTACCTTTTAAGAGGAGGAAT | – | 0.668 | –
9 | ACAGACGAAGGAGCCGCAAAGAAGTTATTAAGGGATCAATAATCCCTCAATATACATATCTCTCACTTATTTAAA | 0.736 | – | –
10 | ACAGACGAAGGAGCCGCAAAGAAGTTATAAAGGGATGTATAATCCCTCAATATAAATATCTCTCACTTATTTAAA | 0.401 | – | cleaved RNA product abundance [2]: 0.322
11 | CGACATGTCCCGCTTCTTTCATTAATCCGTTAGCAACTTTTTTGCTATATACATTTTCCTTTTAAGAGGAGGAAT | – | 0.343 | –
12 | ACAGACGAAGGAGCCGCAAAGAAGTTATTAAGGGATGAATGATCCCTGAATATAAATATCTCTCACTTATTTAAA | 0.383 | – | –
13 | CGACATGTCCCGCTTCTTTCATTACTCCGTTAGCAACTGTTTTGCTAAATACATTTACCTTTTAAGAGGAGGAAT | – | 1.11 | –
14 | CGACATGTCCCGCTTCTTTCATTACTCCGTTAGCAACTGTTTTGCTATATACATTTACATTTTAAGAGGAGGAAT | – | 1.39 | –
15 | ACAGACGAAGGAGCCGCAAAGAAGTTATTAAGGGATGAATAATCCCTCAATATAAGTATCTCTCACTTATTTAAA | 0.42 | – | cleaved RNA product abundance [2]: 0.397; cleaved RNA product abundance (experiment (reporter, strain, medium): exp 6: tetM reporter, strain 168, cleavage site: cggR-gapA (positions -7 to +36 mutated)): 0.462
16 | ACAGACGAAGGAGCCGCAAAGATGTAATTAAGGGATGAATAATCCCTCAATATAAATATCTCTCACTTATTTAAA | 0.427 | – | –
17 | CGACATGTCCCGCTTCTTTCATTAATCCGTTAGCAAATGTTTTGCTATATACATTTAAATTTTAAGAGGAGGAAT | – | 0.806 | –
18 | ACAGACGAAGGAGCCGCAAAGTAATTATTAAGGGATGAATAATCCCTCAATATAAATATCTCTCACTTATTTAAA | 0.645 | – | –
19 | CGACATGTCCCGCTTCTTTCATTATTCCGTTAGCAACTGTTTTGCTATATACTTTTACCTTTTAAGAGGAGGAAT | – | 0.815 | –
20 | CGACATGTCCCGCTTCTTTCATTAATCCGTTAGCAACTGTTTTGCTGTATACATTTACCTTTTAAGAGGAGGAAT | – | 0.219 | –
21 | ACAGACGAAGGAGCCGCAAAGAAGTTATTAAGGGAAGAATAATCCCTCAAAATAAATATCTCTCACTTATTTAAA | 0.182 | – | cleaved RNA product abundance [2]: 0.17

Row | Sequence | cleaved RNA product abundance [1] | cleaved RNA product abundance [3] | also measured
22 | CGACATGTCCCGCTTCTTTCATTAATCCGTTAGCAATTGTTTAGCTATATACATTTACCTTTTAAGAGGAGGAAT | – | 0.468 | –
23 | CGACATGTCCCGCTTCTTTCATTAATCCTTTAGCATCTCTTTTGCTATATACATTTACCTTTTAAGAGGAGGAAT | – | 0.512 | –
24 | ACAGACGAAGGAGCCGCAAAGAAGTTATTAAGGGATGAATAATTCATCAATATAAATATCTCTCACTTATTTAAA | 0.201 | – | –
25 | ACAGACGAAGGAGCCGCAAAGAAGTTGTTAAGGGATGAATAATCCCTTAATATAAATATCTCTCACTTATTTAAA | 0.892 | – | –
26 | CGACATGTCCCGCTTCTTTCATTAATCCGGTAGCAACTGTTATGCTATATACATTTACCTTTTAAGAGGAGGAAT | – | 1.02 | –
27 | ACAGACGAAGGAGCCGCAAAGAAGTTATTAAGCGATGAATAATCCCTCAATATAAATAACTCTCACTTATTTAAA | 0.102 | – | cleaved RNA product abundance [2]: 0.114
28 | ACAGACGAAGGAGCCGCAAAGAAGTTATGAATGGATGAATAATCCCTCAATATAAATATCTCTCACTTATTTAAA | 0.147 | – | –
29 | ACAGACGAAGGAGCCGCAAACAAGTTATTAAGCGATGAATAATCCCTCAATATAAATATCTCTCACTTATTTAAA | 0.0647 | – | cleaved RNA product abundance [2]: 0.0729
30 | ACAGACGAAGGAGCCGCAAAGAAGTTATTAAGGGATGAATATTCGCTCAATATAAATATCTCTCACTTATTTAAA | 0.086 | – | –
31 | ACAGACGAAGGAGCCGCAAAGAAATAATTAAGCGATGAATAATCCCTCAATATAAATATCTCTCACTTATTTAAA | 0.166 | – | –
32 | ACAGACGAAGGAGCCGCAAAGAAGTTATTAAGGGATGAATAAACCCGCAATATAAATATCTCTCACTTATTTAAA | 0.103 | – | –
33 | CGACATGTCCCGCTTCTTTCATTAATCCGTGAGCAACTATTTTGCTATATACATTTACCTTTTAAGAGGAGGAAT | – | 0.988 | –
34 | ACAGACGAAGGAGCCGCAACGAAGTTATTAAGGGATGAATAATCCCTCAACATAAATATCTCTCACTTATTTAAA | 0.447 | – | –
35 | ACAGACGAAGGAGCCGCAAAGAAGTTATTAGGGCATGAATAATCCCTCAATATAAATATCTCTCACTTATTTAAA | 0.132 | – | –
36 | ACAGACGAAGGAGCCGCAAAGAAGTTATTAACGGATGAATAGTCCCTCAATATAAATATCTCTCACTTATTTAAA | 0.174 | – | –
37 | CGACATGTCCCGCTTCTTTCATTAATCCGTGAGCAACTGTTTTGCTATATACATTTACCATTTAAGAGGAGGAAT | – | 0.655 | –
38 | CGACATGTCCCGCTTCTTTCATTAATCCGTTAGCAACTGTTTTGCCATATACATTTACGTTTTAAGAGGAGGAAT | – | 0.6 | –
39 | CGACATGTCCCGCTTCTTTCATTATTCCGTTAGCAACTGTGTTGCTATATACATTTACCTTTTAAGAGGAGGAAT | – | 0.7 | –
40 | ACAGACGAAGGAGCCGCAAAGAAGCTATTAAGGGATGAATAATTCCTCAATATAAATATCTCTCACTTATTTAAA | – | – | cleaved RNA product abundance [2]: 0.432
41 | ACAGACGAAGGAGCCGCAAAGAAGTTATTAAGGGTTGATTAATCCCTCAATATAAATATCTCTCACTTATTTAAA | 0.409 | – | cleaved RNA product abundance [2]: 0.287
42 | ACAGACGAAGGAGCCGCAAAGAAGTTATTAAGGGATGAATAATCCTTCATTATAAATATCTCTCACTTATTTAAA | 0.313 | – | –

Row | Sequence | cleaved RNA product abundance [1] | cleaved RNA product abundance [3] | also measured
43 | ACAGACGAAGGAGCCGCAAAAAAGTTATTAAGGGATGAATCATCCCTCAATATAAATATCTCTCACTTATTTAAA | 1.01 | – | –
44 | CGACATGTCCCGCTTCTTTCATTAACCCGTTACCAACTGTTTTGCTATATACATTTACCTTTTAAGAGGAGGAAT | – | 0.162 | –
45 | ACAGACGAAGGAGCCGCAAAGAATTTATTAAGGGATGAATAATCCCTCGATATAAATATCTCTCACTTATTTAAA | 0.422 | – | –
46 | ACAGACGAAGGAGCCGCAAAGAAGTTATTAAGGGTTGAATAATCCCTTAATATAAATATCTCTCACTTATTTAAA | 0.608 | – | –
47 | ACAGACGAAGGAGCCGCAAAGAAGTTATTAAGGTATGATTAATCCCTCAATATAAATATCTCTCACTTATTTAAA | 0.153 | – | –
48 | ACAGACGAAGGAGCCGCAAACAAGTTATTAAAGGATGAATAATCCCTCATTATAAATATCTCTCACTTATTTAAA | 0.115 | – | –
49 | CGACATGTCCCGCTTCTTTCATTAATCCGTTAGCAACTCTTTTGATATATACATTTACCTTTTAAGAGGAGGAAT | – | 0.51 | –
50 | CGACATGTCCCGCTTCTTTCATTAATCCGTTAGCAACTGTTTTTCTATATACATTTACCTTTTAAGAGGAGGAAT | – | 0.576 | –
51 | CGACATGTCCCGCTTCTTTCATTAATCCTTTAGCAACTGTTTTGCTTTATACATTTACCTTTTAAGAGGAGGAAT | – | 0.174 | –
52 | ACAGACGAAGGAGCCGCAAAGAAGTTATTAAGCGATGAACAATCCCTCAATATAAATATCTCTCACTTATTTAAA | 0.133 | – | –
53 | CGACATGTCCCGCTTCTTTCATTAATCCGTTATCAACTGTTTTGCTATATACAATTACCTTTTAAGAGGAGGAAT | – | 0.276 | –
54 | ACAGACGAAGGAGCCGCAAAGAAGTAATTAAGGGATGAATAATCCCTCTATATAAATATCTCTCACTTATTTAAA | 0.193 | – | –
55 | ACAGACGAAGGAGCCGCAAAGAAGTCATTAAGGGATTAATAATCCCTCAATATAAATATCTCTCACTTATTTAAA | 0.236 | – | –
56 | ACAGACGAAGGAGCCGCAAAGAAGTTATTAATGGATGAATAATCCCTCAAAATAAATATCTCTCACTTATTTAAA | 0.151 | – | cleaved RNA product abundance [2]: 0.11
57 | ACAGACGAAGGAGCCGCAAAGAAGCTATTAAGGGATGAAAAATCCCTCAATATAAATATCTCTCACTTATTTAAA | 0.491 | – | cleaved RNA product abundance [2]: 0.391
58 | CGACATGTCCCGCTTCTTTCATTAATCCGTAAGCAACTGTTTTGCTATATATATTTACCTTTTAAGAGGAGGAAT | – | 0.449 | –
59 | ACAGACGAAGGAGCCGCAAAGAAGTTATTAAGTGATGAATAATCCATCAATATAAATATCTCTCACTTATTTAAA | 0.165 | – | cleaved RNA product abundance [2]: 0.153
60 | CGACATGTCCCGCTTCTTTCATTAATCGGTTAGCAACAGTTTTGCTATATACATTTACCTTTTAAGAGGAGGAAT | – | 0.927 | –
61 | ACAGACGAAGGAGCCGCAAAGAAGTTATTAAGGAATGTATAATCCCTCAATATAAATATCTCTCACTTATTTAAA | 0.169 | – | cleaved RNA product abundance [2]: 0.104
